Data taken from patent US20250171542A1 (ADEPT THERAPEUTICS, published 2025).

T1: canine PD-L1 (Acro Biosystems, Cat #PDL-C52H4) (canine, UniProt E2RKZ5 19-236)
T1 construct: not shown: The vendor's tag, probably a polyhistidine tag
T1 sequence: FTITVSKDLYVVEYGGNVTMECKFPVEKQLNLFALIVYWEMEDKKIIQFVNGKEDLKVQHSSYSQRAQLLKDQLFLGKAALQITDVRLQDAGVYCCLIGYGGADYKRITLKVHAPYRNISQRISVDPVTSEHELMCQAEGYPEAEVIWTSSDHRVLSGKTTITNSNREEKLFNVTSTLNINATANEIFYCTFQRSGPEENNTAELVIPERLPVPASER

T2: CD80 (Sino Biological, Cat #10698-H08H) (UniProt P33681 35-242)
T2 sequence (looked up): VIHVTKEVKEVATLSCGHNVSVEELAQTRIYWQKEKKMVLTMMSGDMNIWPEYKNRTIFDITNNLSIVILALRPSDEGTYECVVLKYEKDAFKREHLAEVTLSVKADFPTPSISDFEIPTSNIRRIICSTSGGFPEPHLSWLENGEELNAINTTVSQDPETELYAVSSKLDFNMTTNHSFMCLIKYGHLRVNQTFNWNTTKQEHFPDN

T3: CD86 (Sino Biological, Cat #10699-H08H) (UniProt P42081 24-245)
T3 sequence (looked up): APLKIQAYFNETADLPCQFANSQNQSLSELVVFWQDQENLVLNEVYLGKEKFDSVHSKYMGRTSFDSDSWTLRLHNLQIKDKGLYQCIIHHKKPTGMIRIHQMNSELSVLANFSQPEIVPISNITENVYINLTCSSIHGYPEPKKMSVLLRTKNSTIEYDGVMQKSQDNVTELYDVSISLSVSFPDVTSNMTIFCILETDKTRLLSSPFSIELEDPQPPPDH

T4: BH-H2 (Sino Biological, Cat #11559-H08H) (UniProt O75144 19-258)
T4 sequence (looked up): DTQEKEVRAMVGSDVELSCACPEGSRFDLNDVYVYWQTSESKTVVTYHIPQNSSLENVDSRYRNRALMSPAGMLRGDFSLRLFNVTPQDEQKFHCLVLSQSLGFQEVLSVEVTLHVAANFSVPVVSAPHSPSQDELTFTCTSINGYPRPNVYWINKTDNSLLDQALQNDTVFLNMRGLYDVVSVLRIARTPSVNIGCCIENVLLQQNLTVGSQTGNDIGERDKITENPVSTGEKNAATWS

T5: B7-H3 (Sino Biological, Cat #11188-H08H) (UniProt Q5ZPR3 29-461)
T5 sequence (looked up): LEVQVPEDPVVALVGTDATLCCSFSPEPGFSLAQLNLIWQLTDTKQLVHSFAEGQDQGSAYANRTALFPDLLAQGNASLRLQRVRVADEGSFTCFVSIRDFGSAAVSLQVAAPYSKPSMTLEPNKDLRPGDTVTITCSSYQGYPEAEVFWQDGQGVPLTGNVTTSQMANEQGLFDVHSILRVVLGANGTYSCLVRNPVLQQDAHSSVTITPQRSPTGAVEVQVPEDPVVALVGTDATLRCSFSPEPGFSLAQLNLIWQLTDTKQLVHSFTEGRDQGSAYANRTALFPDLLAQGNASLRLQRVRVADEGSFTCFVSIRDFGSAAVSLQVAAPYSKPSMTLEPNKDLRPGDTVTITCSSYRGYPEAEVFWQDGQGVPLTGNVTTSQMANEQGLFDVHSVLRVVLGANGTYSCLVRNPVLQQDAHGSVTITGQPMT

T6: PD-L2 (Sino Biological, Cat #10292-H08H) (UniProt Q9BQ51 20-219)
T6 sequence (looked up): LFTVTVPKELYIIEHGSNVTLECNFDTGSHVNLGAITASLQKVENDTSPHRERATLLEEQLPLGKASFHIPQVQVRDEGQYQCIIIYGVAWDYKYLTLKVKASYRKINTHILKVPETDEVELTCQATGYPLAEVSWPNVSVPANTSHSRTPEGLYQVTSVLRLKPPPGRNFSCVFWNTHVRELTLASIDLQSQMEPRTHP


How the values were obtained:
[1] = biological target: T7, rat PD-L1 (Sino Biological, Cat #80450-R08H) (rat, UniProt D4AE25 19-239); assay: ELISA
T7 construct: not shown: The vendor's polyhistidine tag

[2] = biological target: T1, canine PD-L1 (Acro Biosystems, Cat …); assay: ELISA
[3] = biological target: T2, CD80 (Sino Biological, Cat #10698-H08H); assay: ELISA
[4] = biological target: T3, CD86 (Sino Biological, Cat #10699-H08H); assay: ELISA
[5] = biological target: T4, BH-H2 (Sino Biological, Cat #11559-H08H); assay: ELISA
[6] = biological target: T5, B7-H3 (Sino Biological, Cat #11188-H08H); assay: ELISA
[7] = biological target: T6, PD-L2 (Sino Biological, Cat #10292-H08H); assay: ELISA
[8] = biological target: human PD-L1 expressed on cell surface (human, UniProt Q9NZQ7 19-290); assay: cell-based or functional assay
[9] = biological target: T8, human PD-L1-His (Sino Biological, Cat #10084-H08H) (human, UniProt Q9NZQ7 19-238); assay: ELISA, coated human PD-L1-His
T8 construct: Bought protein; also called human PD-L1 ECD-His; recombinant human PD-L1-His protein; not shown: His tag
Method: Briefly, Maxisorp plates (Nunc) were coated with 100 ul/well of 0.5 μg/ml human PD-L1-His (Sino Biological, Cat #10084-H08H) or cynomolgus PD-L1-His (Sino Biological, Cat. 90251-C08H) protein diluted in 1×PBS (GIBCO) overnight at 4° C. Plates were washed three times with 300 μl/well washing buffer (1×PBST, diluted from 20×PBST (Thermo Scientific) with distilled water)) and then blocked with 300 μl/well of blocking buffer (1×PBST/I % BSA) for 2 hours at RT on shaker (100 rpm). Plates were washed and added with 100 μl/well of testing antibodies, which were serial diluted with assay buffer (PBST/1% BSA). The antibodies were incubated at room temperature for 2 hours on plate shaker at 100 rpm. Plates were washed. One hundred microliter of horseradish peroxidase (HRP) conjugated detection antibody was added into each well and incubated at room temperature for 1 hour on plate shaker at 100 rpm. Plates were washed and added with 100 μl/well TMB substrate for color development at room temperature in dark for up to 10 minutes. After addition of 50 μl/well of stop solution (1N H₂SO₄), plates were read at 450 nm on a plate reader (SpectraMax M5).
Anti-HEL isotype control (Biolntron) was used as negative control.

[10] = biological target: T9, cynomolgus PD-L1-His (Sino Biological, Cat. 90251-C08H) (cynomolgus, UniProt Q9NZQ7 19-238 (human entry)); assay: BLI (Gator), cynomolgus PD-L1
T9 construct: Bought protein; also called Cyno PD-L1; Cynomolgus PD-L1 ECD-His; not shown: His tag
T9 sequence (Q9NZQ7 other isoform, or with tags, fused parts or gaps C08H C08H limits assumed): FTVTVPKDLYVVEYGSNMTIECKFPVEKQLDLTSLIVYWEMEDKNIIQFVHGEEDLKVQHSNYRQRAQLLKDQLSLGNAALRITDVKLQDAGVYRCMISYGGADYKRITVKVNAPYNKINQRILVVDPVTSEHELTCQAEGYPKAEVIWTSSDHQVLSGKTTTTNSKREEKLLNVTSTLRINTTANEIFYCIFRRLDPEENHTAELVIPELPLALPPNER

T7 sequence (D4AE25 entry or part of it R08H R08H limits assumed): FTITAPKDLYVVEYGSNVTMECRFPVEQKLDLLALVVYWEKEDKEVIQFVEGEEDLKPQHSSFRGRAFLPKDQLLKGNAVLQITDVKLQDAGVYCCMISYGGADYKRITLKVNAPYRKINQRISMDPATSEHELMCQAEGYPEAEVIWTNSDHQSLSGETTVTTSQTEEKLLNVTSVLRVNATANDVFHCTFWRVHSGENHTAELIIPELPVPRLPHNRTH
Chain of human PD-L1 expressed on cell surface (Q9NZQ7 19-290 limits assumed): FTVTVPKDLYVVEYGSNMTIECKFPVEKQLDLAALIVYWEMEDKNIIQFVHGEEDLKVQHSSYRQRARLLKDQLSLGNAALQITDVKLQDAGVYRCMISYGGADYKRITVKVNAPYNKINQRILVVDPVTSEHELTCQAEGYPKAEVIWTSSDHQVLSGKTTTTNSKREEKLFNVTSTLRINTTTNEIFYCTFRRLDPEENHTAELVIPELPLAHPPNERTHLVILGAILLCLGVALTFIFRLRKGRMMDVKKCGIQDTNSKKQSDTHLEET
T8 sequence (Q9NZQ7 19-238): as the sequence (Q9NZQ7 other isoform, or with tags, fused parts or gaps C08H C08H limits assumed) above, with T33A, S34A, N62S, Q68R, R82Q, L173F, A185T, I192T, L215H counted along it

Row | binding result [1] | binding result [2] | binding result [3] | binding result [4] | binding result [5] | binding result [6] | binding result [7] | Internalization (%), FACS, 0.25 µg/ml, 2 h [8] [%] | Internalization (%), FACS, 0.25 µg/ml, 4 h [8] [%] | Internalization (%), FACS, 0.5 µg/ml, 2 h [8] [%] | Internalization (%), FACS, 0.5 µg/ml, 4 h [8] [%] | Internalization (%), FACS, 1 µg/ml, 2 h [8] [%] | Internalization (%), FACS, 1 µg/ml, 4 h [8] [%] | Internalization (%), FACS, 2 µg/ml, 2 h [8] [%] | Internalization (%), FACS, 2 µg/ml, 4 h [8] [%] | EC50 [9] [nM] | Kd [10] [nM] | koff [10] [s⁻¹] | kon [10] [M⁻¹ s⁻¹] | Binder
1 | no binding | no binding | no binding | no binding | no binding | no binding | no binding | 20.4 | 17.6 | 12 | 19.9 | 15.3 | 15.5 | 8.3 | 6 | 0.0159 | 0.33 | 0.000132 | 403000 | 28B3 (antibody, human IgG1, V domains shown) VH: QSVEESGGRLVTPGTPLTLSCTASGFSLSSYYMIWVRQAPGKGLEYIGYVYTGSGNTWYASWAKGRFAISKASTTVDLMITSPTTEDTATYFCASGADGVYDWGWDIWGPGTLVTVSL VL: DIVMTQTPASVEAAVGDTVTIKCQASQSIYSLLAWYQQKPGQRPKLLIAGASNLESGVPSRFSGSGSGTEYTLTISALECADAATYYCQNNYDSGRIYGLAFGGGTEVVVK
2 | no binding | no binding | no binding | no binding | no binding | no binding | no binding | 20.9 | 21.6 | 22.8 | 25.8 | 20.4 | 23.3 | 29.6 | 30.2 | 0.0399 | 0.93 | 0.000202 | 218000 | 33E8 (antibody, human IgG1, V domains shown) VH: QSLEESGGDLVKPGASLTLTCTASGFYFSSGYDMSWVRQAPGKGLEWIASIFTTSGSTWYANWAKGRFTISKTSSTTVTLQMTSLTDADTATYFCTKDGVGSFYMNLWGPGTLVTVSS VL: LVMTQTPASVEVAVGGTVTIKCQASQTIGSNLAWYQQRPGQPPKLLIYKAFTLASGVSSRFKGSGSGTQFTLTISGVECADAATYYCQQGATRINIDNAFGGGTEVVVK
3 | no binding | no binding | no binding | no binding | no binding | no binding | no binding | 22 | 15.6 | 17.8 | 23 | 19.5 | 15.7 | 22.5 | 21.7 | 0.016 | ≤ 0.03 | ≤ 1e-05 | 344000 | 73C8 (antibody, human IgG1, V domains shown) VH: QEQLEESGGGLVQPEGSLTLTCTVSGFSFSGDYYMSWVRQAPGKGLEWVASIYTGSLNTYYATWAKGRFTISLTSSTTVTLQMTSLTAADTATYFCARRNKNADYGHFDLWGPGTLVTVSS VL: YDMTQTPASVEVAVGGTVTIKCQASQSINDRLAWYQQKPGQPPKLLIYAASTLASGVPSRFRGSGSGTDFTLTISDLECADAATYYCQQGWTVSSLDNAFGGGTEVVAM
4 | no binding | no binding | no binding | no binding | no binding | no binding | no binding | 11.5 | 11 | 13.2 | 12 | 17.7 | 9.2 | 13.9 | 11.7 | 0.0229 | 3.09 | 0.000915 | 296000 | 74A9 (antibody, human IgG1, V domains shown) VH: QSVEESGGRLVTPGTPLTLTCAVSGFSLSTYALGWVRQAPGKGLEWIGSISIGGATYYASWAKGRFTISKTSTTVDLKIASPTTEDTATYFCARNVDSIYLDAFHTWGPGTLVTVSL VL: DIVMTQTPASVEAAVGGTVTIKCQASQNIYNNLAWYQQKPGQPPKLLIYRASTLASGVPSRFKGSGSGTEYTLTISDLECDDAATYYCQTYYLTTTTNAFGGGTEVVVK
5 | no binding | no binding | no binding | no binding | no binding | no binding | no binding | 2.2 | -25.9 | 0.4 | 5.6 | 1.1 | 7.2 | 2.4 | 7.6 | 0.106 | 0.53 | 7e-05 | 133000 | 32E2 (antibody, human IgG1, V domains shown) VH: QEQLEESGGDLVKPEGSLTLTCTASGFSFSSSYYMSWVRQAPGMGLEWIASISGGVTDNAYYASWAKGRFTVSKTSSTTVTLQLTSLTAADTATYFCARDSSSGYFFLLWGPGTLVTVSS VL: LVMTQTPSSVSAAVGGTVTINCQASQNIYSNLAWYQQKPGQRPKLLIFGASNLRSGVPSRFKGSGSGTEYTLTISDLECADAATYYCQEGYSIGNVDNPFGGGTEVVVK
